From US20250326842A1 (BEIGENE SWITZERLAND, published 2025) come the findings set out here.

Where a chain is given by its changes, count along the chain named. Where two headings read alike, the source gives them in different places.

The target in experiment [1] is T1, human PVRIG expressed on cells (human, UniProt Q6DKI7 41-326).
T1 construct: Jurkat cells engineered to express human PVRIG; also called hPVRIG-Jurkat; native human PVRIG
T1 sequence: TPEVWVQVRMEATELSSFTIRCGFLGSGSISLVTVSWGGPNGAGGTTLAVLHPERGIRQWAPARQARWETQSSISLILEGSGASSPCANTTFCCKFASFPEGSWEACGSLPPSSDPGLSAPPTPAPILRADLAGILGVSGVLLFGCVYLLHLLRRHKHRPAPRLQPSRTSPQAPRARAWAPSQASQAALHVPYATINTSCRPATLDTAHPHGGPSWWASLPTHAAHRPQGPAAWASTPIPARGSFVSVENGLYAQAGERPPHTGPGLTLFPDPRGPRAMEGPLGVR
In words: FACS on human PVRIG-expressing cells.

Experiment [2] concerns the target T2, human PVRIG recombinant protein (human, UniProt Q6DKI7 41-171).
T2 construct: also called human PVRIG protein; recombinant human antigen PVRIG
T2 sequence: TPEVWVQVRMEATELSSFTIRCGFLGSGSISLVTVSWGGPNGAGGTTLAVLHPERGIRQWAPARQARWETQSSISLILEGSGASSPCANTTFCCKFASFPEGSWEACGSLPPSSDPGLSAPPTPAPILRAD
The experiment can be described thus: SPR, antibody captured via anti-human Fc, human PVRIG analyte. An excerpt: For affinity determination, anti-PVRIG antibodies were captured by anti-human Fc antibodies, and used in the affinity assay based on surface plasmon resonance (SPR) technology.

The target in experiment [3] is T3, hPVRIG-ECD-his (human, UniProt Q6DKI7 41-171).
T3 construct: Acrobiosystems PVG-H52H4; also called hPVRIG-His; human PVRIG-His; not shown: His tag
T3 sequence: T2 sequence
In words: blocking ELISA: hPVRIG-His coated, antibody mixed with PVRL2-biotin at 1 ug/mL; % inhibition of PVRL2 binding [panel A].

Experiment [4] deals with T2, human PVRIG recombinant protein. In words: ELISA, chimeric antibody on recombinant human PVRIG.
For experiment [5] the target is unchanged. In words: SPR, antibody captured via anti-human Fc, human PVRIG analyte. The method, then: Chimeric anti-PVRIG antibodies were generated in human IgG1 format and characterized for binding kinetics by surface plasmon resonance (SPR) assays using BIAcore™ T-200 (GE Life Sciences). […] Then a serial dilution of human or Cyno PVRIG protein was flowed over the chip surface and changes in surface plasmon resonance signals were analyzed to calculate the association rates (kₒₙ) and dissociation rates (koff) by using the one-to-one Langmuir binding model (BIA Evaluation Software, GE Life Sciences). The equilibrium dissociation constant (KD) was calculated as the ratio koff/kₒₙ.
This is another data set of the same source.

Experiment [6] concerns the target T3, hPVRIG-ECD-his. In words: competition ELISA, antibody against PVRL2 on coated human PVRIG.
Experiment [7] concerns the target T1, human PVRIG expressed on cells. The experiment can be described thus: flow cytometry on Jurkat cells expressing human PVRIG, anti-hFc-AF647 detection [panel A]. As for the experimental part: (§1) To evaluate the binding activity of anti-PVRIG antibodies to native PVRIG on living cells, Jurkat cells were engineered to express human PVRIG. Jurkat cells expressing PVRIG were seeded in 96 well plates and were incubated with serially diluted anti-PVRIG antibodies. […] EC50 values for dose dependent binding to human native PVRIG were determined by fitting the dose response data to the four-parameter logistic model with GraphPad Prism™.

Experiment [8] addresses T4, Cyno PVRIG expressed on HEK293 cells (cynomolgus monkey).
T4 construct: also called native Cyno PVRIG
T4 chain: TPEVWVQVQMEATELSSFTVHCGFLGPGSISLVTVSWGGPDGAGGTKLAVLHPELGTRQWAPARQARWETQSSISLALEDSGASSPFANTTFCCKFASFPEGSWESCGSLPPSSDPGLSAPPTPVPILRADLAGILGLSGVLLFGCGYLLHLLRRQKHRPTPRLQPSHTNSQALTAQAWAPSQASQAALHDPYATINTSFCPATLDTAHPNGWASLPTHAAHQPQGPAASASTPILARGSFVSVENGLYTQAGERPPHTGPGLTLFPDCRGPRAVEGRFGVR
In words: flow cytometry on 293T cells expressing cyno PVRIG, anti-hFc-AF647 detection [panel A]. As for the experimental part:
(§2) To evaluate the binding activity of anti-PVRIG antibodies to native Cyno PVRIG on living cells. HEK293 cells were engineered to express Cyno PVRIG. HEK293 cells transfected with Cyno PVRIG were seeded in 96 well plates and were incubated with a serial dilution of anti-PVRIG antibodies. […] EC50 values for dose dependent binding to Cyno native PVRIG were determined by fitting the dose response data to the four-parameter logistic model with GraphPad Prism™.

For experiment [9], the target named is T3, hPVRIG-ECD-his. In words: blocking ELISA: hPVRIG-His coated, antibody mixed with PVRL2-biotin at 1 ug/mL; % inhibition of PVRL2 binding.
The target of experiment [10] is T1, human PVRIG expressed on cells. In words: flow cytometry on Jurkat cells expressing human PVRIG, anti-hFc-AF647 detection. The method, then:
To evaluate the binding activity of anti-PVRIG antibodies to native PVRIG on living cells, Jurkat cells were engineered to express human PVRIG. Jurkat cells expressing human PVRIG were seeded in 96 well plates, and were incubated with serially diluted anti-PVRIG antibodies. […] EC50 values for dose dependent binding to human native PVRIG were determined by fitting the dose response data to the four-parameter logistic model with GraphPad Prism™.

The target in experiment [11] is T2, human PVRIG recombinant protein. The experiment can be described thus: SPR, antibody captured via anti-human Fc, human PVRIG analyte. An excerpt: For affinity determination, antibodies were captured by anti-human Fe antibodies, and used in the affinity assay based on surface plasmon resonance (SPR) technology. […] Rmax represents the maximal feasible SPR signal generated by an interaction between a ligand-analyte pair and is represented in response units (RU).
This is another data set of the same source.

The target of experiment [12] is T1, human PVRIG expressed on cells. In words: flow cytometry on Jurkat cells expressing human PVRIG, anti-hFc-647 detection [panel B]. The method, then: as §1
Experiment [13] concerns the target T4, Cyno PVRIG expressed on HEK293 cells. In words: flow cytometry on HEK293 cells expressing cyno PVRIG, anti-hFc-647 detection [panel B]. The method, then:
as §2

Experiment [14] addresses T1, human PVRIG expressed on cells. The experiment can be described thus: flow cytometry on Jurkat cells expressing human PVRIG, anti-hFc-AF647 detection. The method, then:
To evaluate the binding activity of anti-PVRIG antibodies to native PVRIG on living cells, Jurkat cells were engineered to express human PVRIG. […] EC50 values for dose dependent binding to human native PVRIG were determined by fitting the dose response data to the four-parameter logistic model with GraphPad Prism™.
The source holds these as a separate data set.

In experiment [15] the target is T2, human PVRIG recombinant protein. The experiment can be described thus: SPR, antibody captured via anti-human Fc, human PVRIG analyte. An excerpt:
For affinity determination, antibodies were captured by anti-human Fc antibodies, and used in the affinity determination based on surface plasmon resonance (SPR) technology.
The source holds these as a separate data set.

Experiment [16] deals with T4, Cyno PVRIG expressed on HEK293 cells. In words: flow cytometry on 293T cells expressing cyno PVRIG, anti-hFc-AF647 detection. The method, then: To evaluate the binding activity of anti-PVRIG antibodies to native Cyno PVRIG on living cells. HEK293 cells were engineered to express Cyno PVRIG. HEK293 expressing PVRIG cells were seeded in 96 well plates and were incubated with a serial dilution of anti-PVRIG antibodies. […] EC50 values for dose dependent binding to Cyno native PVRIG were determined by fitting the dose response data to the four-parameter logistic model with GraphPad Prism™.

The target of experiment [17] is T3, hPVRIG-ECD-his. The experiment can be described thus: blocking ELISA: hPVRIG-His coated, antibody mixed with PVRL2-biotin at 1 ug/mL; % inhibition of PVRL2 binding. This is another data set of the same source.

B1: BGA38 (antibody, V domains shown)
VH: EVQLQESGAEHVMPGASVKMSCKAAGYTFTDYWMYWVKQRPGQGLEWIGTIDTSDHKTSYNQKFRGKATLTVDESSSTAYMQLSSLTSEDSAVYYCARDFIITVNYPVVDYWGQGTSVTVSS
VL: QNVLTQSPAIMSASPGEKVTITCSAGSSVNYMHWFQQKPGTSPKLWIYSTSNLASGVPARFSGSGSGTSYSLTISRMEAEDAATYYCQQRSSLPFTFGSGTKLEIK
notes: also called BGA38-WT
For B1, in experiment [1], the EC50 worked out at 0.059 nM and the “binding Emax (MFI)” value came to 1040 MFI. In experiment [2], the Kd is 0.045 nM, the koff came out at 0.000175 s⁻¹ and the kon was 3.89e+06 M⁻¹ s⁻¹. For the same molecule, the “IC50 (read off the curve)” value with hPVRIG-ECD-his [3] is about 0.6 µg/mL. Further, the EC50 in experiment [4] turned out to be 0.524 nM. Also, in experiment [5], the Kd was 0.112 nM, the koff worked out at 0.00017 s⁻¹ and the kon was determined as 1.52e+06 M⁻¹ s⁻¹. In addition, in the experiment with hPVRIG-ECD-his [6], the IC50 was determined as 1.5 nM and the “PVRIG/PVRL2 blocking Emax (% Inhibition)” value came out at 60%. The “EC50 (read off the curve)” value in experiment [7] is about 0.03 µg/mL. The half-maximal effective concentration (EC50 (read off the curve)) in experiment [8] was about 0.05 µg/mL.

B2: BGA12 (antibody, V domains shown)
VH: QVQLQQSGPEVVRPGVSVKISCKGSGYTFTDYAMHWVKQSHGKSLEWIGVVLTHNDNTNYNQKFKAKATMTVDRSSSTAYMELARLTSEDSAIYYCAREVYYDFDDGNYFPMDYWGQGTSVTVSS
VL: DIVMSQSPSSLAVSVGEKVTMSCKSSQSLLYSDNQKNYLAWYQQKPGQSPKLLIYWASTRESGVPVRFTGSGSGTDFTLTISSVKAEDLAVYYCQQYYSYHTFGGGTKLEIK
With B2, in experiment [1], a half-maximal effect (EC50) was put at 0.05 nM and the “binding Emax (MFI)” value turned out to be 1180 MFI. Moreover, the “IC50 (read off the curve)” value with hPVRIG-ECD-his [9] is about 0.6 µg/mL. The “EC50 (read off the curve)” value in [10] is about 0.007 µg/mL. The EC50 in experiment [4] is 0.126 nM. Also, in experiment [5], the Kd was determined as 0.0684 nM, the koff was 0.00157 s⁻¹ and the kon is 2.29e+07 M⁻¹ s⁻¹. In the experiment with hPVRIG-ECD-his [6], the IC50 worked out at 0.15 nM and the “PVRIG/PVRL2 blocking Emax (% Inhibition)” value stood at 91.9%. In [11], the Kd was determined as 0.0684 nM, the koff was 0.00157 s⁻¹ and the kon was determined as 2.29e+07 M⁻¹ s⁻¹.

B3: BGA381 (antibody, V domains shown)
VH: EVQLVQSGAEVKKPGASVKVSCKASGYTFTDYWIYWVRQAPGQGLEWMGTIDTSDHKTSYNQKFRGRVTMTRDTSTSTVYMELSSLRSEDTAVYYCARDFIITVNYPVVDYWGQGTLVTVSS
VL: QIVLTQSPATLSLSPGERATLSCSAGSSVNYMHWFQQKPGQAPRLLIYSTSNLASGVPARFSGSGSGTDYTLTISSLEPEDFAVYYCQQRSSLPFTFGQGTKLEIK
notes: Humanized BGA38; also called BGA381-WT; BGA381/IgG1 WT
B3: the “EC50 (read off the curve)” value is about 0.03 µg/mL in experiment [12], about 0.06 µg/mL in experiment [13], about 0.03 µg/mL in experiment [7] and about 0.06 µg/mL in experiment [8]. Besides, the Kd in experiment [2] worked out at 0.0707 nM. Also, the koff in experiment [2] came to 0.000311 s⁻¹. Further, the kon in experiment [2] worked out at 4.4e+06 M⁻¹ s⁻¹. The “IC50 (read off the curve)” value with hPVRIG-ECD-his [3] is about 0.4 µg/mL.

B4: BGA383 (antibody, V domains shown)
VH: B3 VH with H56A
VL: B3 VL
notes: Humanized BGA38
As to B4, the “EC50 (read off the curve)” value in experiment [12] was about 0.03 µg/mL. In [2], the Kd amounted to 0.0998 nM, the koff amounted to 0.000649 s⁻¹ and the kon came out at 6.51e+06 M⁻¹ s⁻¹. Moreover, the “EC50 (read off the curve)” value in experiment [13] was about 0.04 µg/mL.

B5: BGA382 (antibody, V domains shown)
VH: B3 VH
VL: B3 VL with I2N, M32L
notes: Humanized BGA38
As for B5, in experiment [2], the Kd is 0.0646 nM, the off-rate constant (koff) was 0.000211 s⁻¹ and the kon came to 3.26e+06 M⁻¹ s⁻¹. Moreover, the “IC50 (read off the curve)” value with hPVRIG-ECD-his [3] was about 0.4 µg/mL. Further, the “EC50 (read off the curve)” value in experiment [7] was about 0.03 µg/mL. The “EC50 (read off the curve)” value in experiment [8] was about 0.03 µg/mL.

B6: BGA861 (antibody, V domains shown)
VH: EVQLVESGGGLVKPGGSLRLSCAASGFTFSSYGISWVRQAPGKGLEWVSEISSGGTYTYYPDTVTGRFTISRDNAKNTLYLQMSSLRAEDTAVYYCARGDPFGYWGQGTLVTVSS
VL: DIQMTQSPSSLSASVGDRVTITCKASQDVMTAVAWYQQKPGKAPKLLIYSTSYRFTGVPSRFSGSGSGTDFTLTISSLQPEDFATYYCQQHYSTPRTFGGGTKVEIK
notes: Humanized BGA86
B6: in [14], the “EC50 (read off the curve)” value is about 0.02 µg/mL. In experiment [15], the dissociation constant Kd is 0.645 nM, the koff is 0.000954 s⁻¹ and the kon was 1.48e+06 M⁻¹ s⁻¹. The “EC50 (read off the curve)” value in experiment [16] is about 0.04 µg/mL. In addition, the “IC50 (read off the curve)” value with hPVRIG-ECD-his [17] is about 0.2 µg/mL.
